For orientation: Kd means the constant that tells how readily two partners part at equilibrium. A lower Kd goes with tighter binding.

These results are taken from PMC13381803 (2026).

Experiment [1] has as its target T1, Hna with a C-terminal GFP tag (Sinorhizobium meliloti).
T1 chain: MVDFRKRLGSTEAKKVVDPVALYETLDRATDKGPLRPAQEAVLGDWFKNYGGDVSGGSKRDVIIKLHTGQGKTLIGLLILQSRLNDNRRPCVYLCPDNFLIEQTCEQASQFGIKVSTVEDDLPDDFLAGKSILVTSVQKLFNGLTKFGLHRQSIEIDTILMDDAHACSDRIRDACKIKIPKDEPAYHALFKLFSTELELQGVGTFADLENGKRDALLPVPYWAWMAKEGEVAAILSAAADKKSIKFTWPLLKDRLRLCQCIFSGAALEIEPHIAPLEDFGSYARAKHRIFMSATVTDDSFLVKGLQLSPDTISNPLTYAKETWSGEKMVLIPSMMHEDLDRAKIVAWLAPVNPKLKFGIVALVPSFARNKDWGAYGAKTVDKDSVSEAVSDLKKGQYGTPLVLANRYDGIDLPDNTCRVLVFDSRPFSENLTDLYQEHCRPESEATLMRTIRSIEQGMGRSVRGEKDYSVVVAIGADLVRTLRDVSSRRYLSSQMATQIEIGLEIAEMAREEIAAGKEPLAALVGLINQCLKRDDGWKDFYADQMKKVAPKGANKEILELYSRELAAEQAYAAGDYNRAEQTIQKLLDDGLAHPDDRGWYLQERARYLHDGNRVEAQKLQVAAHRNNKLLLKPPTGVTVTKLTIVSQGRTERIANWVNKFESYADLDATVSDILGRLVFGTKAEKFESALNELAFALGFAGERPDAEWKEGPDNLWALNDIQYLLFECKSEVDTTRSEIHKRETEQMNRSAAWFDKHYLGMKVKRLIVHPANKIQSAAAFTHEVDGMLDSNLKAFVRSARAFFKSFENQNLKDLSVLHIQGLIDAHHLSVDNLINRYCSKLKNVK
In words: FP; with ATP.

Experiment [2] addresses T1, Hna with a C-terminal GFP tag. In words: FP; without ATP.

B1: Hna (helicase-nuclease abortive infection), wild type, Sinorhizobium meliloti (enzyme)
chain: T1 chain
With B1, the Kd came out at 0.337 µM in experiment [1] and 4.46 µM in experiment [2].
